# Reference: IntAct's records for PubMed 20700104
# B1: Caspase Dronc (Drosophila melanogaster (Fruit fly)), Q9XYF4 (parent)
# chain: MQPPELEIGMPKRHREHIRKNLNILVEWTNYERLAMECVQQGILTVQMLRNTQDLNGKPFNMDEKDVRVEQHRRLLLKITQRGPTAYNLLINALRNINCLDAAVLLESVDESDSRPPFISLNERRTSRKSADIVDTPSPEASEGPCVSKLRNEPLGALTPYVGVVDGPEVKKSKKIHGGDSAILGTYKMQSRFNRGVLLMVNIMDYPDQNRRRIGAEKDSKSLIHLFQELNFTIFPYGNVNQDQFFKLLTMVTSSSYVQNTECFVMVLMTHGNSVEGKEKVEFCDGSVVDMQKIKDHFQTAKCPYLVNKPKVLMFPFCRGDEYDLGHPKNQGNLMEPVYTAQEEKWPDTQTEGIPSPSTNVPSLADTLVCYANTPGYVTHRDLDTGSWYIQKFCQVMADHAHDTDLEDILKKTSEAVGNKRTKKGSMQTGAYDNLGFNKKLYFNPGFFNE
# partner: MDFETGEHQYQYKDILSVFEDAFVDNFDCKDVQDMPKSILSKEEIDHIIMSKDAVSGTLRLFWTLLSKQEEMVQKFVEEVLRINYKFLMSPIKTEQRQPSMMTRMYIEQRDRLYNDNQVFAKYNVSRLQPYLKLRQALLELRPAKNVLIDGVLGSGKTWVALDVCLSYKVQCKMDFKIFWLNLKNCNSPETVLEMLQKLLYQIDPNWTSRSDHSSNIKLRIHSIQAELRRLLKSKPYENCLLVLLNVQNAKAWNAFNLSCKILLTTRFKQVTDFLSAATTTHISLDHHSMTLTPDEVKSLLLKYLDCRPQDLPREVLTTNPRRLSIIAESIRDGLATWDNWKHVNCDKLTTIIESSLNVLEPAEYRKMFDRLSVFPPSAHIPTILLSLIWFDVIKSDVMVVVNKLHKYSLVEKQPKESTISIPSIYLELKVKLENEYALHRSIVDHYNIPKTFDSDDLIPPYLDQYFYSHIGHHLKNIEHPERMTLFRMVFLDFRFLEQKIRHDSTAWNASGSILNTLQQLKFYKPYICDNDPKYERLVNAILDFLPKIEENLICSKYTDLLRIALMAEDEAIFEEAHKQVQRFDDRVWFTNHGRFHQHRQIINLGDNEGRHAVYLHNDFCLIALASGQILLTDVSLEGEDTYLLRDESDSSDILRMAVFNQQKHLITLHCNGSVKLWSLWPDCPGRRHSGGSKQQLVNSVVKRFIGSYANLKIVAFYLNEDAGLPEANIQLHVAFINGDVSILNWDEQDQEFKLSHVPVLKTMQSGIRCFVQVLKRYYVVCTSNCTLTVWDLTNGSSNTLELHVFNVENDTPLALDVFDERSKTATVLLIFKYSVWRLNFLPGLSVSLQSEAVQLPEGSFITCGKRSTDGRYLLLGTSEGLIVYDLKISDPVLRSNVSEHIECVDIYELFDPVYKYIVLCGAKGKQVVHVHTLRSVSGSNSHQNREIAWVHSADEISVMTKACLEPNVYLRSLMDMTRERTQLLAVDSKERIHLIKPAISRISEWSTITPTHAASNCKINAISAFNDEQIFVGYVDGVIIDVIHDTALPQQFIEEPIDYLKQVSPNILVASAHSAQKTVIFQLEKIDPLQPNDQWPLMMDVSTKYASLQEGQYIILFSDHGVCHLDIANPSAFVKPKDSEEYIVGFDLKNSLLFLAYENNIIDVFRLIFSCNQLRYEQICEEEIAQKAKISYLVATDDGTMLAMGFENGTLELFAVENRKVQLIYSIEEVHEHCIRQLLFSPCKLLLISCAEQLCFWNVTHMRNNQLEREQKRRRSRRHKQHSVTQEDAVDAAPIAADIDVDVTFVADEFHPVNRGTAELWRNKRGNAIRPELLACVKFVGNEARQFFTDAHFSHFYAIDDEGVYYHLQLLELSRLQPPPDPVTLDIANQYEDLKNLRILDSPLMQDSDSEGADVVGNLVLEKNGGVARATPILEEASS
# B2: Caspase Dronc (Drosophila melanogaster (Fruit fly)), Q9XYF4 (parent)
# chain: B1 chain
# Variants of: B1
# Conditions: with apaf_drome Dark
row,effect of a mutation on the interaction,Variant
1,increasing interaction,MQPPELEIGMPKRHREHIRKNLNILVEWTNYERLAMECVQQGILTVQMLRNTQDLNGKPFNMDEKDVRVEQHRRLLLKITQRGPTAYNLLINALRNINCLDAAVLLESVDESDSRPPFISLNERRTSRKAADIVDTPSPEASEGPCVSKLRNEPLGALTPYVGVVDGPEVKKSKKIHGGDSAILGTYKMQSRFNRGVLLMVNIMDYPDQNRRRIGAEKDSKSLIHLFQELNFTIFPYGNVNQDQFFKLLTMVTSSSYVQNTECFVMVLMTHGNSVEGKEKVEFCDGSVVDMQKIKDHFQTAKCPYLVNKPKVLMFPFCRGDEYDLGHPKNQGNLMEPVYTAQEEKWPDTQTEGIPSPSTNVPSLADTLVCYANTPGYVTHRDLDTGSWYIQKFCQVMADHAHDTDLEDILKKTSEAVGNKRTKKGSMQTGAYDNLGFNKKLYFNPGFFNE [S130A]
2,increasing interaction,MQPPELEIGMPKRHREHIRKNLNILVEWTNYERLAMECVQQGILTVQMLRNTQDLNGKPFNMDEKDVRVEQHRRLLLKITQRGPTAYNLLINALRNINCLDAAVLLESVDESDSRPPFISLNERRTSRKSADIVDTPSPEASEGPCVSKLRNEPLGALTPYVGVVDGPEVKKSKKIHGGDSAILGTYKMQSRFNRGVLLMVNIMDYPDQNRRRIGAEKDSKSLIHLFQELNFTIFPYGNVNQDQFFKLLTMVTSSSYVQNTECFVMVLMTHGNSVEGKEKVEFCDGSVVDMQKIKDHFQTAKCPYLVNKPKVLMFPFARGDEYDLGHPKNQGNLMEPVYTAQEEKWPDTQTEGIPSPSTNVPSLADTLVCYANTPGYVTHRDLDTGSWYIQKFCQVMADHAHDTDLEDILKKTSEAVGNKRTKKGSMQTGAYDNLGFNKKLYFNPGFFNE [C318A]

# Variants of: B2
# Conditions: with kcc2a_drome CaMKII
row,effect of a mutation on the interaction,Variant
1,disrupting interaction,MQPPELEIGMPKRHREHIRKNLNILVEWTNYERLAMECVQQGILTVQMLRNTQDLNGKPFNMDEKDVRVEQHRRLLLKITQRGPTAYNLLINALRNINCLDAAVLLESVDESDSRPPFISLNERRTSRKAADIVDTPSPEASEGPCVSKLRNEPLGALTPYVGVVDGPEVKKSKKIHGGDSAILGTYKMQSRFNRGVLLMVNIMDYPDQNRRRIGAEKDSKSLIHLFQELNFTIFPYGNVNQDQFFKLLTMVTSSSYVQNTECFVMVLMTHGNSVEGKEKVEFCDGSVVDMQKIKDHFQTAKCPYLVNKPKVLMFPFCRGDEYDLGHPKNQGNLMEPVYTAQEEKWPDTQTEGIPSPSTNVPSLADTLVCYANTPGYVTHRDLDTGSWYIQKFCQVMADHAHDTDLEDILKKTSEAVGNKRTKKGSMQTGAYDNLGFNKKLYFNPGFFNE [S130A]
